Test system: MS2 coat protein
Experiment: apparent KD of MS2 coat protein; designed switch direction (-1 OFF switch, 1 ON switch): -1; higher = weaker reporter binding
Outline: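 Apparent KD, taken as the median over clusters for each design, was obtained by curve-fitting normalised cluster fluorescence. Designed RNA switches had been transcribed on Illumina chips by stalled E. coli RNA polymerase and titrated with SNAP-549-labelled MS2 coat protein, doubling from 0.7 or 1.5 nM to 3 µM.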

[1] = input ligand: microRNA oligo, concentration not stated
[2] = Eterna round: R95, input ligand: FMN 200 uM
[3] = Eterna round: R95, input ligand: microRNA oligo, concentration not stated
[4] = Eterna round: R95, input ligand: none

| Sequence | apparent KD of MS2 coat protein (input ligand: FMN 200 uM) [nM] | apparent KD of MS2 coat protein (input ligand: none) [nM] | apparent KD of MS2 coat protein [1] [nM] | apparent KD of MS2 coat protein [2] [nM] | apparent KD of MS2 coat protein [3] [nM] | apparent KD of MS2 coat protein [4] [nM] |
| --- | --- | --- | --- | --- | --- | --- |
| ACAGGCUUUUUGCUCGUCUACAUGAGGAUCACCCAUGUGGGAUUGUUGGUUGUGUUGCUUGUUUGUGCUCGUCUUGU [Low Nucleotide] (Eterna round: R97, puzzle: Sensor, turn-off variant 1) | 16.1 | 17.6 |  |  |  |  |
| AGCCACAGAGGAUAUACAUACAUCCAGUAGUUGAGAAAACUACAUGAGGAUCACCCAUGUAGAAGGCUGUGGCA [Omei Ex2 BD B4] (Eterna round: R97, puzzle: Exclusion 2) | 27.4 | 321 |  |  |  |  |
| CGAGCUGCUGUGAGGAUAUACCUAUGGAUACAUAGGUAGAAGGCACAUGAGGAUCACCCAUGUCCUGCAGCUCG [jl-bmx4-4.60 Eli mod] (Eterna round: R97, puzzle: Brourd's mod of Exclusion 4) | 232 | 44 |  |  |  |  |
| UGCAGACGAGGAUAUAGAUUUAAGUACAUGAGGAUCACCCAUGUACAUAUGUAUUUAGAUUUAGAAGGCGUCUGCA [E5/16-A2] (Eterna round: R97, puzzle: Exclusion 5) | 28.2 | 27.7 |  |  |  |  |
| GUUUUGAGACGGAGAUCCGACAUGAGGAUCACCCAUGUCUCGCAAGCUUUUUGCUCGUCUUAUACUCCUCUGUUCUC [Elimod 45 - Jieux - Sensor, turn-off variant 1] (Eterna round: R97, puzzle: Sensor, turn-off variant 1) | 17.8 | 17.1 |  |  |  |  |
| GUCUUACAUGAGGAUCACCCAUGUGAGGAUAUGGUUUCGCUGGCCGUAGCCAGUGGAACCAGAAGGCGCGUGAU [Mat - Exclusion 1 - JL Mod - D20] (Eterna round: R97, puzzle: Exclusion 1) | 73.1 | 72.8 |  |  |  |  |
| UUAAUUAGCAGGCAAGAUCAUUACAUGAGGAUCACCCAUGUCGAGGAUAUCAGCUCGUUUAGAGCUGAGAAGGCGACAGCCUGC [ExNG3/13-A2] (Eterna round: R96, puzzle: Exclusion NG 3) | 711 | 417 | 289 |  |  |  |
| UAGAAGGUAGGAUAUACGAAUAAAUAGGGUAGUAAGAAUACACAUGAGGAUCACCCAUGUAGAAGGACCAAGAU [Mat - Exclusion 2 - Mod of my Tesla design - D32] (puzzle: Exclusion 2) |  |  |  | 43.1 | 19.5 | 20.9 |
| GUGUUGCGAGGAUAUAUAAGGGUAUGUUCUUAGGAUAUGGAACAUGAGGAUCACCCAUGUAGAAGGUGCAUAUC [JR_Ex2_Sub047] (Eterna round: R97, puzzle: Exclusion 2) | 67.8 | 33.9 |  |  |  |  |
| CCGCCGCAAGGAUAUACUUGCGGUGGUGUUCGAGUUCUUUUACUUGAGGAUCACCCAAGUAGAAGGUGCAAAAC [jl-ex2.4.55 ViennaUCT mod] (Eterna round: R97, puzzle: Exclusion 2) | 11.9 | 11.5 |  |  |  |  |
| UGCAUCUGAGGAUAUCACAUGUGGAACAUGAGGAUCACCCAUGUGAUCCACAUGCCGUUGUGAGAAGGCAGUAAAA [Isteon] (puzzle: Exclusion 5) |  |  |  |  | 268 |  |
| GAGUUAGCGUGAGGAAUAUACAUGAGGAUCACCCAUGUUAACAAAUAUAUUGCUCGUCUUAUAACAACAAUUAACUC [Alarm 8 - Jieux - Sensor, turn-off variant 1] (Eterna round: R97, puzzle: Sensor, turn-off variant 1) | 14.9 | 16.5 |  |  |  |  |
| CUGUUCCGUGUAGGAUAUGCAUAUUCUCAUUAUGCAGAAGGACAUGAGGAUCACCCAUGUAUGUUAUUAUCAUGUGUUACAUGU [Design 6] (Eterna round: R96, puzzle: Exclusion NG 1) |  |  | 22.4 |  |  |  |
| AUUAUACAUGUAGGAUAUCUGCACGAUUAGUGCAGAGAAGGACAUGAGGAUCACCCAUGUAGAUCAAUAAUAAUUAAUUUAAUU [ENG1/6-B1] (Eterna round: R96, puzzle: Exclusion NG 1) | 500 | 156 | 122 |  |  |  |
| CCAUGUUAGCAGGAUAUGCCAUUAUUCCUUUACGCAGAAGGGCUUACAUGAGGAUCACCCAUGUAACAUUUCAU [JR_E6_Sub083] (puzzle: Exclusion 6) |  |  |  |  | 14.1 |  |
| GAUUAACAUGAGGAUCACCCAUGUGAGGAUAUGGACUUGCCCACUUACCCUUUAGAGUCUAGAAGGCGCAUUUC [1986#31] (Eterna round: R97, puzzle: Exclusion 1) | 23.1 | 20.9 |  |  |  |  |
| UUAAUUAAUUAACGCAGCAAGAUCACAUGAGGAUCACCCAUGUAGGAUAUCAGCUCGUGUAGAGCUGAGAAGGACAUAGCUGCG [ExNG3/1-A3] (Eterna round: R96, puzzle: Exclusion NG 3) | 80.8 | 16.8 | 17.2 |  |  |  |
| CUGAGUCAAGGAUAUACAUGAGGAUCACCCAUGUAAAGUAGCUUGCGUACAGGCAGAUGUAGAAGGUGAUUCGG [Mod of JL 9 - Jieux - Exclusion 3] (Eterna round: R97, puzzle: Exclusion 3) | 100 | 90.7 |  |  |  |  |
| AAGAGGUCAGGAUAUACGGAAAGAGAGAGAAGGUGAGGGUAACAUGAGGAUCACCCAUGUAGAAGGGACUAAGA [JR_Exclu2_Sub074] (puzzle: Exclusion 2) |  |  |  | 54.5 | 44.8 | 38.5 |
| CCAAGCUUUUUCAAUAACAACAUGAGGAUCACCCAUGUUUAAGCUAUUACUUUUGGGCUCUUUAGUGCUAGUCUUAU [JR_STOV1_Sub038] (Eterna round: R97, puzzle: Sensor, turn-off variant 1) | 18 | 18.2 |  |  |  |  |
| ACAUGAGGAUCACCCAUGUGACAACAAUGGCUGAUAUAGAAACAGGAUAUUCGUGAAUAUCUAACGAAGAAGGGUUAUGACUGG [Deportation 66 - Jieux - Exclusion NG 3] (Eterna round: R96, puzzle: Exclusion NG 3) | 50.4 | 54.1 | 43.1 |  |  |  |
| CGCGUAUGAGGAUAUGCAUAAAAGGGUGCACUGAGUCUGUGACAUGAGGAUCACCCAUGUAGAAGGCGUGCGCA [Diquzain] (puzzle: Exclusion 2) |  |  |  |  | 25.4 |  |
| CACCGUUACUGAGGAUAUGGUACAUGAGGAUCACCCAUGUAAUAAAUGAGAAUUUCGGAUGUAUUCCAGAAGGCAGAAAUCGGC [Ostricism 63 - Jieux - Exclusion NG 2] (Eterna round: R96, puzzle: Exclusion NG 2) | 65.2 | 60.3 | 40.5 |  |  |  |
